Experiment [1] concerns the target T1, Mature Activin A (human, UniProt P08476 311-426).
T1 construct: also called active Activin A; INHBA mature
T1 sequence: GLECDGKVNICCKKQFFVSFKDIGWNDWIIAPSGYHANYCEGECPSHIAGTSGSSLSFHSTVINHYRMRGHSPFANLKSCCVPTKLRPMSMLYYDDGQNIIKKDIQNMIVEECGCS
Briefly: ELISA dose-response, coated antigen. How it is done: (§1) Antibodies were re-expressed in 40 mL cultures of Expi293 cells and purified using protein G magnetic sepharose beads (Cytiva, Marlborough, MA) to provide larger quantities for secondary screening. Secondary screening included dose responses in both functional assays described above (SMAD nuclear localization and fibroblast activations assays) as well as in binding assays to the same antigens listed in Table 3. Plates were coated with 25 μL of 3 μg/mL antigen in 384-well Maxisorp plates overnight at 4° C. with agitation. The next day, the samples in the plates were blocked with 70 μL blocking buffer (PBS+1% BSA+0.1% Tween-20) for 2 hours at room temperature. Plates were then washed three times with 100 μL of wash buffer (PBS+0.1% Tween-20). Primary antibodies in Expi293 expression medium were diluted 1:3 in blocking buffer, 25 μL added per well, and the plates were incubated for an hour at room temperature with agitation. Plates were then washed three times and 25 μL of secondary antibody (goat anti-Human IgG, HRP conjugated; Jackson Immunoresearch) diluted 1:5000 in blocking buffer was added for 30 minutes at room temperature. The wells in the plates were washed six times with wash buffer and TMB substrate was added followed by 1 M H3PO4.

Experiment [2] addresses T2, Latent Activin A (human, UniProt P08476 21-426, limits assumed).
T2 construct: also called INHBA latent
T2 sequence: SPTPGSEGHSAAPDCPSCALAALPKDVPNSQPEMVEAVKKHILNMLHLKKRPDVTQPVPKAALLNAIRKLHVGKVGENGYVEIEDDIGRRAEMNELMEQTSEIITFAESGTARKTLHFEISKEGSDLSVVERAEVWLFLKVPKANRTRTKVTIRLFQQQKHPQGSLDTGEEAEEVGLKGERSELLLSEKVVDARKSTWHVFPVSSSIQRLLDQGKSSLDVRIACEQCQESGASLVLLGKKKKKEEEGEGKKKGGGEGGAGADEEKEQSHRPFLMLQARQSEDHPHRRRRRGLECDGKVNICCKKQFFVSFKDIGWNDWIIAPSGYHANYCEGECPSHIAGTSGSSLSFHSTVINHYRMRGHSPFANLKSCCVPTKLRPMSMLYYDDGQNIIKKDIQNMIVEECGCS
Description: ELISA dose-response, coated antigen. As to the method: as §1
A general note: An ELISA detects its analyte on a solid surface through an enzyme-linked reagent.

Experiment [3] concerns the target T3, Activin B (Homo sapiens (Human), UniProt P09529 293-407).
T3 construct: also called Mature Activin B; mature Activin B
T3 sequence: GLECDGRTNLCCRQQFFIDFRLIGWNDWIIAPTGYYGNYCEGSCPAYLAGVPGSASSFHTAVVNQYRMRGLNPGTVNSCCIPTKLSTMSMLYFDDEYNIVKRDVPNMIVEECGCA
Briefly: ELISA dose-response, coated antigen; dose-response ELISA, 1:3 dilutions from 133 nM; weak binding within the tested range. How it is done: as §1

In experiment [4] the target is T3, Activin B. Briefly: ELISA, coated antigen, OD450; secondary screen, single OD 450 reading as fold over negative control; below the 1.40-fold cut-off. As to the method: as §1
Experiment [5] addresses T1, Mature Activin A. Description: ELISA, coated antigen, OD450.
In experiment [6] the target is T2, Latent Activin A. Description: ELISA, coated antigen, OD450.
Experiment [7] concerns the target T4, Inhibin A (Homo sapiens (Human), UniProt P05111 233-366; P08476 311-426).
T4 sequence 1: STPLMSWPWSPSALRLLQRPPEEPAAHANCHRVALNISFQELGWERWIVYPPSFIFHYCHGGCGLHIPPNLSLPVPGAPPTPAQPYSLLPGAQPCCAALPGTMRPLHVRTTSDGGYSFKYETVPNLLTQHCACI
T4 sequence 2: T1 sequence
Briefly: ELISA, coated antigen, OD450.

For experiment [8], the target named is T1, Mature Activin A. Description: ELISA, coated antigen, OD450; negative control antibody. As to the method: as §1
Experiment [9] has as its target T2, Latent Activin A. Described as above. As to the method:
as §1

The target of experiment [10] is T4, Inhibin A. The description is as above. As to the method:
as §1

The target in experiment [11] is T3, Activin B. The description is as above. How it is done:
as §1

Experiment [12] has as its target T4, Inhibin A. Description: ELISA dose-response, coated antigen (row 'Inhibin'). How it is done: as §1
A further experiment has as its target T5, Inhibin B (Homo sapiens (Human), UniProt P05111 233-366; P09529 293-407).
T5 sequence 1: T4 sequence 1
T5 sequence 2: T3 sequence
Briefly: the assays described above.

Experiment [13] has as its target T3, Activin B. Description: ELISA, coated antigen, OD450; secondary screen, single OD 450 reading as fold over negative control; below the 1.40-fold cut-off, so not a binder. As to the method: as §1

B1: AB852 (antibody, IgG1, V domains shown)
VH: QVTLRESGPALVKPTQTLTLTCTVSGFSLSDTRWGVNWIRQPPGKALEWIGYINDRGTTDYNSALKSRLTISKDTSKNQVVLTMTNMDPVDTATYYCAHTLHTREFVGMDVWGQGTTVTVSS
VL: DIVMTQSPDSLAVSLGERATINCKSSQSVLDTSTNRNYLAWYQQKPGQPPKLLIYGASIRAGGVPDRFSGSGSGTDFTLTISSLQAEDVAVYYCQQYETWPWTFGGGTKVEIK
Turning to B1, the concentration for a half-maximal effect (EC50) (in general, the midpoint of the concentration-response curve) in the experiment with Mature Activin A [1] came out at 2.73 nM; with Latent Activin A [2], 40.9 nM; with Activin B [3], 21.3 nM. Moreover, the “fold-change of OD 450 over negative control (BSA)” value (“fold-change” for short) turned out to be 0.88 fold in the experiment with Activin B [4], 8.73 fold with Mature Activin A [5], 6.01 fold with Latent Activin A [6] and 0.94 fold in the experiment with Inhibin A [7].

B2: Control 3 (antibody, human IgG1, kappa, V domains shown)
VH: QVTLRESGPALVKPTQTLTLTCTFSGFSLSTSGMSVGWIRQPPGKALEWLADIWWDDKKDYNPSLKSRLTISKDTSKNQVVLKVTNMDPADTATYYCARSMITNWYFDVWGAGTTVTVSS
VL: DIQMTQSPSTLSASVGDRVTITCKCQLSVGYMHWYQQKPGKAPKLLIYDTSKLASGVPSRFSGSGSGTEFTLTISSLQPDDFATYYCFQGSGYPFTFGGGTKLEIKR
notes: Negative control antibody; also called palivizumab
For B2, the binding result in the experiment with Mature Activin A [8], with Latent Activin A [9], with Inhibin A [10] and with Activin B [11] was “no binding” each time.

B3: Control 1 (antibody, V domains shown)
VH: QVQLVQSGAEVKKPGASVKVSCKASGYTFTSYGLSWVRQAPGQGLEWMGWIIPYNGNTNSAQKLQGRVTMTTDTSTSTAYMELRSLRSDDTAVYFCARDRDYGVNYDAFDIWGQGTMVTVSS
VL: not shown
notes: also called AMGA1; Amga1
Regarding B3, the EC50 in the experiment with Inhibin A [12] turned out to be 0.02 nM; in the experiment with Mature Activin A [1] it was 0.03 nM; with Latent Activin A [2], 0.03 nM. For the same molecule, in the experiment with Inhibin B, the binding result is “no binding”. Further, the “fold-change” value with Activin B [4] was determined as 0.57 fold; with Mature Activin A [5], 16.3 fold; with Latent Activin A [6] it was 18.7 fold; with Inhibin A [7], 11.7 fold.

B4: Control 2 (antibody, human IgG4 S228P, kappa, V domains shown)
VH: QVQLQESGPGLVKPSETLSLTCTVSGGSFSSHFWSWIRQPPGKGLEWIGYILYTGGTSFNPSLKSRVSMSVGTSKNQFSLKLSSVTAADTAVYYCARARSGITFTGIIVPGSFDIWGQGTMVTVSS
VL: not shown
notes: also called garetosmab; Garetosmab
Turning to B4, the EC50 came to 2.08 nM in the experiment with Inhibin A [12], 0.07 nM in the experiment with Mature Activin A [1], 0.04 nM in the experiment with Latent Activin A [2] and 11.2 nM with Activin B [3]. Also, the “fold-change” value in the experiment with Activin B [4] is 0.71 fold; with Mature Activin A [5], 21 fold; with Latent Activin A [6], 21.6 fold; with Inhibin A [7], 15.9 fold.

B5: AB342 (antibody, IgG1, V domains shown)
VH: EVQLVESGGGLVQPGGSLRLSCAASGFDFGEHWMSWVRQAPGKGLELVASIKGDASDTYYPDSVKGRFTISRDNAKNSLYLQMNSLRAEDTAVYYCVKDLSKQWLGIDYWGQGTLVTVSS
VL: DIVMTQSPLSLPVTPGEPASISCRSSQSLLHSNEKNYLHWYLQKPGQSPQLLIYDASKRASGVPDRFSGSGSGTDFTLKISRVEAEDVGVYYCVQDLHTPFTFGGGTKVEIK
For the molecule B5, the results for the EC50 in the experiment with Mature Activin A [1] and with Latent Activin A [2] were 4.89 nM and 48.6 nM, respectively. The “fold-change” value came to 0.43 fold in the experiment with Activin B [13], 7.81 fold in the experiment with Mature Activin A [5], 7 fold with Latent Activin A [6] and 0.36 fold with Inhibin A [7].

(Values after patent publication US20250270304A1 (PHENOMIC AI, published 2025).)
